Data: US20240016847A1 (TRUSTEES OF COLUMBIA UNIVERSITY IN THE CITY OF NEW YORK, published 2024)

Columns and labels:
[1] = molecular target: sfGFP with a cysteine substitution at position D117 (D117C synthetic antigen) (Aequorea victoria (Water jellyfish) …, UniProt P42212 2-238 = GFP); experiment: cell-based or functional assay
[2] = molecular target: sfGFP linked to the PlGF123-144 peptide sequence with a flexible glycine-serine linker at the C-terminus …; experiment: cell-based or functional assay

B1: GFP specific ProCAR construct (GFP28z): sfGFP-binding nanobody, IgG4 hinge, CD28 transmembrane and intracellular domains, CD3zeta signaling domain (receptor)
chain: QVQLQESGGGSVQAGGSLKLSCAASGGAYRNACMGWFRQAPGKEREGVAIINSVDTTYYADPVKGRFTISRDNAKSTVYLLMNSLKPEDTAIYYCAQVARVVCPGDKLGASGYNYWGQGTQVTVSSGSESKYGPPCPCPAFWVLVVVGGVLACYSLLVTVAFIIFWVRSKRSRLLHSDYMNMTPRRPGPTRKHYQPYAPPRDFAAYRSLRVKFSRSADAPAYQQGQNQLYNELNLGRREEYDVLDKRRGRDPEMGGKPRRKNPQEGLYNELQKDKMAEAYSEIGMKGERRRGKGHDGLYQGLSTATKDTYDALHMQALPPR
[1]
  SA-driven fold expansion of GFP28z: 8 fold
[2]
  SA-driven fold expansion of GFP28z: 8 fold
  viability of GFP28z T cells after 24 hr with 500 ng/mL PlGF-SA, relative to untreated controls: ~72 % of untreated controls
